Groups on a side chain read outwards from the residue. No end group written: not given here. maleimide = maleimide group of MeO-PEG-maleimide, which reacts with the Cys side-chain thiol
T1: human mpl receptor (human, UniProt P40238 26-635)
T1 sequence (looked up): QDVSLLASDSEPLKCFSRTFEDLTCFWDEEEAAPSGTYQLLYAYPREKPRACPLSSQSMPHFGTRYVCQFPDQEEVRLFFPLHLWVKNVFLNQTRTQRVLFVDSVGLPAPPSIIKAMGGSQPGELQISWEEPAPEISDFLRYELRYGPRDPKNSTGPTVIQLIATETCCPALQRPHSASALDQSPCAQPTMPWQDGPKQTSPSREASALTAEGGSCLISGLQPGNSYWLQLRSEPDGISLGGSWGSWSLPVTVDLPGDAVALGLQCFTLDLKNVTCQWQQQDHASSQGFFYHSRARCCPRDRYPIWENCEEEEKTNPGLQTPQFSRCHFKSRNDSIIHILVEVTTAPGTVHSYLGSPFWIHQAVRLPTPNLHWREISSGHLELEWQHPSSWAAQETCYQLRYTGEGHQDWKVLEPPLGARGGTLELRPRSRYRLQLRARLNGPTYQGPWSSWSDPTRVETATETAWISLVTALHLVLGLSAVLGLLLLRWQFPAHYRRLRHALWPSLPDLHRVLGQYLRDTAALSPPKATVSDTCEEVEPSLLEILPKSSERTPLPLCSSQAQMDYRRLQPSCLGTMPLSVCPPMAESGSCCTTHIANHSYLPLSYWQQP

B1: TMP C-C dimer (SEQ ID NO: 2) (peptide)
peptide: IEGPTLRQWLAARA
modifications: also: dimer of two TMP chains joined at C-termini through a Lys branch (structure only in a drawing)
B2: peptide 22 (dimer of a dimer, oxidised peptide 18) (peptide)
peptide: IEGPTLRQWLAARAGGGCGGGGIEGPTLRQWLAARA
modifications: also: homodimer: intermolecular disulfide between the linker Cys18 of two chains

The molecules below were run against T1, human mpl receptor (assay: cell-based or functional assay). Details: not given.
With IEGPTLRQWLAARAGIEGPTLRQWLAARA [TMP-(Gly)n-TMP, n = 1] the “Relative Potency (EC50), proliferation of murine 32D cells transfected with human mpl receptor” value (shortened to “Relative Potency (EC50), proliferation”) was 4 log units of activity (1 unit is approximately 10-fold). For IEGPTLRQWLAARAGGGGGIEGPTLRQWLAARA [TMP-(Gly)n-TMP, n = 5], the “Relative Potency (EC50), proliferation” value was 4 log units of activity (1 unit is approximately 10-fold). For B1, the “Relative Potency (EC50), proliferation” value was 3.5 log units of activity (1 unit is approximately 10-fold). In the case of IEGPTLRQWLAARA [TMP monomer (SEQ ID NO: 1)], the “Relative Potency (EC50), proliferation” value is reported as 1 log units of activity (1 unit is approximately 10-fold). For IEGPTLRQWLAARAGGGIEGPTLRQWLAARA [TMP-(Gly)n-TMP, n = 3], the “Relative Potency (EC50), proliferation” value was 4 log units of activity (1 unit is approximately 10-fold). In the case of IEGPTLRQWLAARAIEGPTLRQWLAARA [TMP-(Gly)n-TMP, n = 0], the “Relative Potency (EC50), proliferation” value is reported as 4.5 log units of activity (1 unit is approximately 10-fold). In the case of IEGPTLRQWLAARAGGGGGGGGIEGPTLRQWLAARA [TMP-(Gly)n-TMP, n = 8], the “Relative Potency (EC50), proliferation” value is reported as 4.5 log units of activity (1 unit is approximately 10-fold). In the case of IEGPTLRQALAARAGGGGGGGGIEGPTLRQALAARA [IEGPTLRQALAARA-GGGGGGGG-IEGPTLRQALAARA (SEQ ID NO. 13)], the “Relative Potency (EC50), proliferation” value is reported as 0.5 log units of activity (1 unit is approximately 10-fold). In the case of B2, the “Relative Potency (EC50), proliferation” value is reported as 4 log units of activity (1 unit is approximately 10-fold). IEGPTLRQWLAARAGGGNGSGGIEGPTLRQWLAARA [TMP-GGGNGSGG-TMP (SEQ ID NO. 19)] was tested, and the “Relative Potency (EC50), proliferation” value was 4 log units of activity (1 unit is approximately 10-fold). For IEGPTLRQWLAARAGGGKGGGGIEGPTLRQWLAARA [TMP-GGGKGGGG-TMP (SEQ ID NO. 14)], the “Relative Potency (EC50), proliferation” value was 4 log units of activity (1 unit is approximately 10-fold). In the case of IEGPTLRQWLAARAGGGCGGGGIEGPTLRQWLAARA [TMP-GGGCGGGG-TMP (SEQ ID NO. 16)], the “Relative Potency (EC50), proliferation” value is reported as 4 log units of activity (1 unit is approximately 10-fold). With IEGPTLRQWLAARAGGGKGGGGIEGPTLRQWLAARA (not fully specified (residue 18)) [TMP-GGGK(PEG)GGGG-TMP (SEQ ID NO. 17)] the “Relative Potency (EC50), proliferation” value was 5 log units of activity (1 unit is approximately 10-fold). In the case of IEGPTLRQWLAARAGPNGIEGPTLRQWLAARA [TMP-GPNG-TMP (SEQ ID NO. 10)], the “Relative Potency (EC50), proliferation” value is reported as 3 log units of activity (1 unit is approximately 10-fold). In the case of IEGPTLRQWLAARAGGGGIEGPTLRQWLAARA [TMP-(Gly)n-TMP, n = 4], the “Relative Potency (EC50), proliferation” value is reported as 4 log units of activity (1 unit is approximately 10-fold). With IEGPTLRQWLAARAGGGGGGGIEGPTLRQWLAARA [TMP-(Gly)n-TMP, n = 7] the “Relative Potency (EC50), proliferation” value was 4 log units of activity (1 unit is approximately 10-fold). For IEGPTLRQWLAARAGGGGGGIEGPTLRQWLAARA [TMP-(Gly)n-TMP, n = 6], the “Relative Potency (EC50), proliferation” value was 4 log units of activity (1 unit is approximately 10-fold). IEGPTLRQWLAARAGGGC([maleimide-mPEG 5 kDa])GGGGIEGPTLRQWLAARA [TMP-GGGC(PEG)GGGG-TMP (SEQ ID NO. 18)] was tested, and the “Relative Potency (EC50), proliferation” value was 5 log units of activity (1 unit is approximately 10-fold). In the case of IEGPTLRQWLAARAGGIEGPTLRQWLAARA [TMP-(Gly)n-TMP, n = 2], the “Relative Potency (EC50), proliferation” value is reported as 4 log units of activity (1 unit is approximately 10-fold).

Same assay, conditions: scale: log units of activity
For TPO (ligand), the Relative Potency (EC50), proliferation of murine 32D cells transfected with human mpl receptor was 4. Work on TMP-(Gly)n-TMP, n = 14 (peptide) yielded a Relative Potency (EC50), proliferation of murine 32D cells transfected with human mpl receptor of 4. TMP-(Gly)n-TMP, n = 9 (peptide) was tested, and the Relative Potency (EC50), proliferation of murine 32D cells transfected with human mpl receptor was 4. Molecule TMP-(Gly)n-TMP, n = 10 (peptide) has a Relative Potency (EC50), proliferation of murine 32D cells transfected with human mpl receptor of 4.

Reference: patent US20050080014A1 (Amgen, published 2005)
